Data: paper PMC10694592, “A conserved core region of the scaffold NEMO is essential for signal-induced conformational change and liquid-liquid phase separation” (The Journal of Biological Chemistry, 2023)

Target: FITC-labeled 45-mer peptide derived from the C-terminal region of IKKβ (FITC label (position not given))
Experiment: fluorescence polarisation; fluorescence anisotropy binding assay with an FITC-labeled 45-mer peptide of IKKβ and bacterially expressed full-length NEMO proteins; conditions not told here (refs 13, 26)
Conditions: both partners purified

Kd: 13 ± 2.9 nM
B1: 7XAla-NEMO (aa 1-419), bacterially expressed (natural protein)
chain: MNRHLWKSQLAEMVQPSGGPAADQDVLGEESPLGKPAMLHLPSEQGAPETLQRALEENQELRDAIRQSNQILRERAEELLHFQASQREEKEFLMAKFQEARKLVERLGLEKLDLKRQKEQALREVEHLKRAQQQMAEDKASVKAQVTSLLGELQESQSRLEAATKEAQALEGRARAASEQARQLESEREALQQQHSVQVDQLRMQGQSVEAALRMERQAASEEKRKLAQLQVAYHQLFQEYDNHIKSSVVGSERKRGMQLEDLKQQLQQAEEALVAKQEVIDKLKEEAEQHKIVMETVPVLKAQADIYKADFQAERQAREKLAEKKELLQEQLEQLQREYSKLKASAQESARIEDMRKRHVEVSQAPLPPAPAYLSSPLALPSQRRSPPEEPPDFCCPKCQYQAPDMDTLQIHVMECIE
